Experimental data from IntAct's records for PubMed 10444103.

Legend:
mad14_orysj MADS14 [1] = target: mad14_orysj MADS14 (UniProt Q10CQ1)
mad14_orysj MADS14 [2] = target: mad14_orysj MADS14 (UniProt Q10CQ1); remark: listed apart in the source

mad14_orysj MADS14, sequence (Q10CQ1 whole entry): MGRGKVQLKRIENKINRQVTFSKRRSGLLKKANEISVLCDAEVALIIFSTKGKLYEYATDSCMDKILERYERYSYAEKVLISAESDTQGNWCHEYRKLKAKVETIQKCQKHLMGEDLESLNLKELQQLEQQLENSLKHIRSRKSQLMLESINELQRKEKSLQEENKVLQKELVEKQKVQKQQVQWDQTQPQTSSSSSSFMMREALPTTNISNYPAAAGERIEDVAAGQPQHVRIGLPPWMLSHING
MADS-box transcription factor 6 (Oryza sativa subsp. japonica (Rice)), Q6EU39 L126R;L134R, sequence (Q6EU39 whole entry L126R/L134R): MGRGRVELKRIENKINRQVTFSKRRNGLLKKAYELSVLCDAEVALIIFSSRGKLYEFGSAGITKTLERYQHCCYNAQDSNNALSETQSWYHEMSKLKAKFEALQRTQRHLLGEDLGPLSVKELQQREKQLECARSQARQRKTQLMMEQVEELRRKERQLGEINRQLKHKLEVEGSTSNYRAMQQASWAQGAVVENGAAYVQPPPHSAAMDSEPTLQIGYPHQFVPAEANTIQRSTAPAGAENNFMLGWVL
MADS-box transcription factor 6 (Oryza sativa subsp. japonica (Rice)), Q6EU39 L110R;L118R;L159R;L166R, sequence (Q6EU39 whole entry L110R/L118R/L159R/L166R): as the sequence (Q6EU39 whole entry L126R/L134R) above, with L110R, L118R, R126L, R134L, L159R, L166R counted along it
MADS-box transcription factor 6 (Oryza sativa subsp. japonica (Rice)), Q6EU39 L110R;L118R, sequence (Q6EU39 whole entry L110R/L118R): as the sequence (Q6EU39 whole entry L126R/L134R) above, with L110R, L118R, R126L, R134L counted along it
MADS-box transcription factor 6 (Oryza sativa subsp. japonica (Rice)), Q6EU39 L110S;L118R, sequence (Q6EU39 whole entry L110S/L118R): as the sequence (Q6EU39 whole entry L126R/L134R) above, with L110S, L118R, R126L, R134L counted along it
MADS-box transcription factor 6 (Oryza sativa subsp. japonica (Rice)), Q6EU39 L159R;L166R, sequence (Q6EU39 whole entry L159R/L166R): as the sequence (Q6EU39 whole entry L126R/L134R) above, with R126L, R134L, L159R, L166R counted along it

Row | Substance | effect of a mutation on the interaction (mad14_orysj MADS14 [1]) | effect of a mutation on the interaction (mad14_orysj MADS14 [2])
1 | MADS-box transcription factor 6 (Oryza sativa subsp. japonica (Rice)), Q6EU39 L110R;L118R | decreasing interaction strength | –
2 | MADS-box transcription factor 6 (Oryza sativa subsp. japonica (Rice)), Q6EU39 L110S;L118R | – | decreasing interaction strength
3 | MADS-box transcription factor 6 (Oryza sativa subsp. japonica (Rice)), Q6EU39 L126R;L134R | disrupting interaction strength | disrupting interaction strength

Second part, the substance after the results:

Row | effect of a mutation on the interaction (mad14_orysj MADS14 [1]) | effect of a mutation on the interaction (mad14_orysj MADS14 [2]) | Substance
4 | disrupting interaction strength | disrupting interaction strength | MADS-box transcription factor 6 (Oryza sativa subsp. japonica (Rice)), Q6EU39 L110R;L118R;L159R;L166R
5 | disrupting interaction strength | – | MADS-box transcription factor 6 (Oryza sativa subsp. japonica (Rice)), Q6EU39 L159R;L166R
